Columns and labels:
[1] = tested on: MAL; test: Expression induction experiment with cytokines in cultured T cells derived from peripheral blood (MAL mRNA); assay type: cell-based, human; conditions: 0-48 h, IL-4 2 ng/ml, IL-12 2 ng/ml, IFN-γ 200 ng/ml, IFN-α 100 IU/ml
Description: Effects of various cytokines on the MAL expression level were examined. T cells were separated from the peripheral blood sample from an normal healthy subject using the method described in Example 6, and stimulated with the anti-CD3 antibody to induce the cell growth. That is, on a culture plate which was surface-treated with the anti-CD3 antibody, the separated T cells were cultured in a 5% FCS-containing RPMI1640 medium (1 mM sodium pyruvate, 2 mM L-glutamine, 10 U/ml penicillin, 100 μg/ml streptomycin, and 200 U/ml IL-2) at a density of 5×10^5 cells/ml for 5 days. Grown T cells were diluted with the same medium to a density of 5×10^5 cells/ml, and cultured on a non-surface treated plate for further 3 days. The resulting cells were washed with the medium without IL-2, suspended in the medium (without IL-2) supplemented with cytokine for the stimulation at a density of 1×10^6 cells/ml, and cultured under the stimulation for a predetermined period of time. Cells were then collected to prepare RNA. Cytokines used are shown below:
The same medium as that described in Example 3 was used. During the cultivation for 0˜48 h, mRNA for MAL was induced in the case of stimulation with IL-4. […] Induction of MAL expression with IL-4 may indicate the association of MAL with the action of IL-4 in allergic diseases. For example, MAL may act during the differentiation process of T cell into Th2, and also may associate with the production of Th2 cytokines, IL-4, IL-5, and IL-10.

[2] = tested on: MAL protein; test: Induction of MAL protein expression in Jurkat cell line (Western blotting of raft fraction); assay type: cell-based, human; conditions: Jurkat cells, IL-4 2 ng/ml, 32 hours, raft fractions 4, 5, 6
Description: Cell lysate was prepared from Jurkat cells that had been stimulated with IL-4 (2 ng/ml) for 32 hours, and subjected to sucrose density gradient centrifugation according to the method of Fernando Martin-Belmonte et al. (Fernando Martin-Belmonte, Rosa Puertollano, Jaime Millan, and Miguel A. Alonso. The MAL Proteolipid Is Necessary for the Overall Apical Delivery of Membrane Protein in the Polarized Epithelial Madin-Darby Canine Kidney and Fischer Rat Thyroid Cell Lines. Molecular Biology of the Cell 11, 2033-2045, June 2000) to separate the raft fraction (fractions 4, 5, and 6). Proteins in each fraction were separated by SDS polyacrylamide gel electrophoresis, and analyzed by Western blotting using antibody against MAL peptide or that against LAT (linker for activation of T cells).

[3] = tested on: MAL protein; test: Induction of MAL protein expression in human peripheral blood T-cells (Western blotting of raft fraction); assay type: cell-based; conditions: IL-4 2 ng/ml, 41 hours, fraction 4
Description: Human peripheral blood cells that had been cultured and propagated were similarly stimulated as in Example 7 with IL-4 (2 ng/ml) for 41 hours, and then the MAL protein expression in the raft fraction (fraction 4) was examined by Western blotting. As a result, the induction of the MAL protein expression by IL-4 was confirmed also in the raft of human peripheral blood T-cells (FIG. 8).

**Q.** IFN-α was tested. Which “induction of mRNA for MAL” value [1] did it give?
**A.** No such action was observed

B1: IL-4: cytokine used for stimulation of T cells (protein, UniProt P05112 25-153, looked up)
Interleukin-4: HKCDITLQEIIKTLNSLTEQKTLCTELTVTDIFAASKNTTEKETFCRAATVLRQFYSHHEKDTRCLGATAQQFHRHKQLIRFLKRLDRNLWGLAGLNSCPVKEANQSTLENFLERLKTIMREKYSKCSS
**Q.** With B1 as the molecule, how does the “expression of MAL protein in the raft” value [2] read?
**A.** increased

**Q.** And the “MAL protein expression in the raft fraction” value [3]?
**A.** induction

**Q.** What about the “induction of mRNA for MAL” value [1] of the same molecule?
**A.** induced

B2: IFN-γ: cytokine used for stimulation of T cells (protein, UniProt P01579 24-161, looked up)
Interferon gamma: QDPYVKEAENLKKYFNAGHSDVADNGTLFLGILKNWKEESDRKIMQSQIVSFYFKLFKNFKDDQSIQKSVETIKEDMNVKFFNSNKKKRDDFEKLTNYSVTDLNVQRKAIHELIQVMAELSPAAKTGKRKRSQMLFRG
**Q.** Which “induction of mRNA for MAL” value [1] does the source give for B2 here?
**A.** No such action was observed

Reference: patent US20030148312A1, “Method for testing for allergic disease” (NATIONAL CENTER FOR CHILD HEALTH AND DEVELOPMENT, priority 2001, published 2003)
